Data taken from the supplement of paper PMC7877785.
± gives the uncertainty stated by the source.

Assay: self-splicing fitness, log relative to wild type (ln ratio); higher = more splicing; Tetrahymena group I intron in knt gene, E. coli kanamycin selection, DiMSum; sequences stand for … in CUCUCU…GGAGGGAAAAGUUAUCAGGCAUGCACCUGGUAGCUAGUCUUUAAACCAAUAGAUUGCAUCGGUUUAAAAGGCAAGACCGUCAAAUUGCGGGAAAGGGGUCAACAGCCGUUCAGUACCAAGUCUCAGGGGAAACUUUGAGAUGGCCUUGCAAAGGGUAUGGUAAUAAGCUGACGGACAUGGUCCUAACCACGCAGCCAAGUCCUAAGUCAACAGAUCUUCUGUUGAUAUGGAUGCAGUUCACAGACUAAAUGUCGGUCGGGGAAGAUGUAUUCUUCUCAUAAGAUAUAGUCGGACCUCUCCUUAAUGGGAGCUAGCGGAUGAAGUGAUGCAACACUGGAGCCGCUGGGAACUAAUUUGUAUGCGAAAGUAUAUUGAUUAGUUUUGGAGUACUCGUGGUCG
How it was run: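 Library with all eight P1ex-region intron nucleotides randomised, intron inside the knt kanamycin-resistance gene on pET-22b(+), in E. coli BL21(DE3). Cells grew overnight at 37°C or 30°C on LB agar with or without 25 μg/mL kanamycin (plus 100 μg/mL carbenicillin, 50 μM IPTG, 0.2% rhamnose), in six replicate transformations. Pooled colonies were amplicon-sequenced on Illumina HiSeq 2500. DiMSum fitness is the error-weighted combination of wild-type-normalised replicate fold changes, kanamycin versus none.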

Sequence	self-splicing fitness (ln) (30 °C)	self-splicing fitness (ln) (37 °C)
GUAUAGCAAUAUUACGGCUU	-0.746 ± 0.13	1.21 ± 0.2
CGGCAGCAAUAUUACGUCGG	-1.42 ± 0.079	-0.417 ± 0.098
UUUUAGCAAUAUUACGGUGU	-3.34 ± 0.38	–
UGAAAGCAAUAUUACGUAUC	-3.86 ± 0.28	-2.38 ± 0.25
UAGAAGCAAUAUUACGACCA	-0.67 ± 0.094	-0.157 ± 0.12
CGCCAGCAAUAUUACGUAAA	-3.21 ± 0.19	-1.46 ± 0.13
ACCGAGCAAUAUUACGAGGG	-3.2 ± 0.17	-3.06 ± 0.21
ACUGAGCAAUAUUACGAUGC	-2.69 ± 0.16	-0.416 ± 0.15
AUUCAGCAAUAUUACGUCAA	-0.663 ± 0.11	-0.912 ± 0.11
GUUCAGCAAUAUUACGGAUC	-1.33 ± 0.098	-0.366 ± 0.1
GUCAAGCAAUAUUACGCGCA	-0.483 ± 0.097	-0.0303 ± 0.11
AAAGAGCAAUAUUACGCGCG	-2.69 ± 0.17	-1.65 ± 0.17
CCCCAGCAAUAUUACGAGGA	-2.66 ± 0.13	-1.53 ± 0.11
UAGAAGCAAUAUUACGAUGU	-3.01 ± 0.18	-1.69 ± 0.19
UCAAAGCAAUAUUACGGCGC	-1.8 ± 0.1	-1.41 ± 0.13
GAAAAGCAAUAUUACGAUCC	-1 ± 0.11	-0.724 ± 0.15
AAUCAGCAAUAUUACGUCGU	-0.489 ± 0.054	0.414 ± 0.071
AGGGAGCAAUAUUACGCGAU	-2.89 ± 0.29	-1.84 ± 0.47
GCCUAGCAAUAUUACGCGUA	-1.89 ± 0.13	-0.683 ± 0.12
CGCCAGCAAUAUUACGUUUU	-3.8 ± 0.15	-2.76 ± 0.16
CAAGAGCAAUAUUACGGGCU	–	-2.6 ± 0.34
GUUUAGCAAUAUUACGGCUC	0.0411 ± 0.094	0.193 ± 0.12
CGGCAGCAAUAUUACGGGGC	-2.42 ± 0.18	-2.69 ± 0.33
UACAAGCAAUAUUACGAAAC	–	-1.61 ± 0.32
GUACAGCAAUAUUACGUCUG	-2.04 ± 0.23	-2.09 ± 0.18

Sequence	self-splicing fitness (ln) (30 °C)	self-splicing fitness (ln) (37 °C)
AACAAGCAAUAUUACGACUG	-0.961 ± 0.099	-0.786 ± 0.11
GCUAAGCAAUAUUACGUGUG	-1.22 ± 0.079	-0.636 ± 0.098
GUAGAGCAAUAUUACGGCCG	-0.867 ± 0.16	0.266 ± 0.21
GUCGAGCAAUAUUACGGGGC	–	-1.57 ± 0.28
CCUUAGCAAUAUUACGCACG	-2.02 ± 0.35	–
UCAUAGCAAUAUUACGCCAG	-1.74 ± 0.17	-2.4 ± 0.19
CUGCAGCAAUAUUACGUGGG	-4.18 ± 0.18	-3 ± 0.13
GACUAGCAAUAUUACGAUCC	-2.21 ± 0.18	-1.57 ± 0.2
GCGAAGCAAUAUUACGGAUG	-1.48 ± 0.078	-1.32 ± 0.11
CACGAGCAAUAUUACGGGCC	-3.08 ± 0.38	-2.24 ± 0.31
GUAUAGCAAUAUUACGGACU	-1.83 ± 0.16	-1.27 ± 0.3
UUCCAGCAAUAUUACGUAUA	-1.01 ± 0.17	-1.26 ± 0.16
GGACAGCAAUAUUACGAUAU	-1.67 ± 0.08	-0.201 ± 0.086
CUAUAGCAAUAUUACGGGAU	-3.92 ± 0.25	-0.972 ± 0.16
CAAAAGCAAUAUUACGUGUC	-3.51 ± 0.14	-1.41 ± 0.12
CCCCAGCAAUAUUACGGUUC	-4.25 ± 0.25	-2.97 ± 0.28
UGGCAGCAAUAUUACGAUAC	-3.31 ± 0.48	-1.99 ± 0.38
CUAGAGCAAUAUUACGGAGU	-4.15 ± 0.33	-2.87 ± 0.43
CCGAAGCAAUAUUACGAGUU	-2.77 ± 0.1	-2.96 ± 0.17
CGCGAGCAAUAUUACGUGUA	-3.72 ± 0.18	-1.48 ± 0.11
AACCAGCAAUAUUACGCUCU	-0.0812 ± 0.054	0.0106 ± 0.07
GAAUAGCAAUAUUACGCUGC	-3.36 ± 0.45	-3.32 ± 0.32
CUAGAGCAAUAUUACGCCGA	–	-2.06 ± 0.43
CUCUAGCAAUAUUACGUCAG	-2.85 ± 0.23	-2.34 ± 0.32
AGUGAGCAAUAUUACGAUCC	-0.375 ± 0.25	-0.193 ± 0.22

Sequence	self-splicing fitness (ln) (30 °C)	self-splicing fitness (ln) (37 °C)
CUGUAGCAAUAUUACGCAAC	–	-2.99 ± 0.47
AUGUAGCAAUAUUACGUAAG	-2.99 ± 0.2	-2.93 ± 0.2
CGGAAGCAAUAUUACGGAAG	–	-1.5 ± 0.33
CAAGAGCAAUAUUACGCCUC	-1.95 ± 0.33	–
GCUUAGCAAUAUUACGGUCA	-1.04 ± 0.13	-0.448 ± 0.14
GUUCAGCAAUAUUACGUCUU	-0.624 ± 0.056	-0.758 ± 0.064
UAGAAGCAAUAUUACGGGUU	-4.54 ± 0.34	-1.87 ± 0.2
AUCGAGCAAUAUUACGUAGU	-3.47 ± 0.14	-1.96 ± 0.15
GAGUAGCAAUAUUACGACAA	-0.891 ± 0.12	-0.0944 ± 0.12
AUUUAGCAAUAUUACGCAUA	-2.26 ± 0.12	-1.18 ± 0.12
CCACAGCAAUAUUACGGCCG	-0.955 ± 0.073	0.0456 ± 0.1
UCAUAGCAAUAUUACGUCUA	-2.05 ± 0.19	-0.601 ± 0.14
ACUGAGCAAUAUUACGACCC	–	-0.357 ± 0.33
AACCAGCAAUAUUACGAACA	-0.809 ± 0.07	0.214 ± 0.07
ACACAGCAAUAUUACGCGGA	-1.98 ± 0.072	-1.1 ± 0.07
CCUAAGCAAUAUUACGCCGG	-3.61 ± 0.24	-2.57 ± 0.21
UUUUAGCAAUAUUACGGUUG	-1.77 ± 0.15	-0.623 ± 0.23
AGAUAGCAAUAUUACGAGUU	-2.21 ± 0.1	-0.588 ± 0.099
CAGAAGCAAUAUUACGCCAC	–	-0.904 ± 0.4
CCCGAGCAAUAUUACGCGCU	-3.45 ± 0.25	-2.91 ± 0.29
CCAAAGCAAUAUUACGAACU	-2.89 ± 0.29	-2.13 ± 0.38
UCGAAGCAAUAUUACGGGAA	-2.02 ± 0.12	-0.804 ± 0.11
GUCCAGCAAUAUUACGAUGC	-0.013 ± 0.081	0.389 ± 0.1
GCCCAGCAAUAUUACGCUGG	-2.86 ± 0.15	-3.32 ± 0.28
GGAUAGCAAUAUUACGAUUA	-0.674 ± 0.17	0.409 ± 0.15

Sequence	self-splicing fitness (ln) (30 °C)	self-splicing fitness (ln) (37 °C)
ACUUAGCAAUAUUACGUGGG	-2.95 ± 0.14	-1.14 ± 0.12
ACAAAGCAAUAUUACGCGAU	-2.75 ± 0.14	-2.22 ± 0.16
UUUUAGCAAUAUUACGAAUG	-1.04 ± 0.077	-0.0853 ± 0.096
ACUUAGCAAUAUUACGUCAG	-1.93 ± 0.11	-1.56 ± 0.12
UGUCAGCAAUAUUACGAUGG	-0.3 ± 0.073	0.195 ± 0.098
CGAAAGCAAUAUUACGAUGC	-2.67 ± 0.39	-1.35 ± 0.27
UCAUAGCAAUAUUACGCUAA	-3.23 ± 0.37	-2.07 ± 0.29
UAGCAGCAAUAUUACGGGUC	–	-3.65 ± 0.42
CUAGAGCAAUAUUACGUAGG	-1.04 ± 0.1	1 ± 0.14
ACGCAGCAAUAUUACGUGUA	-2.93 ± 0.11	-1.6 ± 0.082
AUAGAGCAAUAUUACGGUUU	-0.828 ± 0.071	-0.331 ± 0.098
CAUAAGCAAUAUUACGCGGG	-1.6 ± 0.17	-2.18 ± 0.25
CAACAGCAAUAUUACGCGCC	-1.54 ± 0.073	-1.43 ± 0.11
CCCUAGCAAUAUUACGCAGG	-3.06 ± 0.22	-3.3 ± 0.3
GGGAAGCAAUAUUACGCGUA	-0.73 ± 0.14	-0.267 ± 0.14
CCAAAGCAAUAUUACGCCUU	-3.62 ± 0.34	-2.88 ± 0.32
UAGAAGCAAUAUUACGGUGG	-1.84 ± 0.12	-1.2 ± 0.13
UGCUAGCAAUAUUACGACCA	0.141 ± 0.17	0.148 ± 0.27
GAUUAGCAAUAUUACGUUGC	–	-1.94 ± 0.26
CACCAGCAAUAUUACGACUG	-0.642 ± 0.054	0.144 ± 0.073
UCACAGCAAUAUUACGCAAC	–	-3.26 ± 0.39
CAAAAGCAAUAUUACGAGUG	-0.995 ± 0.058	-0.101 ± 0.075
GGUAAGCAAUAUUACGGGGU	–	-2.57 ± 0.25
AGUCAGCAAUAUUACGUCAA	-2.24 ± 0.12	-1.09 ± 0.1
GCGCAGCAAUAUUACGCGGA	-0.906 ± 0.096	-0.269 ± 0.084
